According to patent publication US20040048243A1, “Methods and compositions for in vitro targeting” (priority 2003, published 2004):
No end group written: not given here.

Legend:
rhAngiostatin [1] = target: T1, rhAngiostatin (Homo sapiens, UniProt P00747); assay: Panning of CX7C phage library on rhAngiostatin (clone frequency); format: binding; conditions: clones sequenced after panning on rhAngiostatin
T1 construct: rh-Angiostatin and rh-Endostatin were produced by EntreMed, Inc; purchased EntreMed, Inc. (Rockville, Md.)
T1 sequence (P00747 79-466 limits assumed): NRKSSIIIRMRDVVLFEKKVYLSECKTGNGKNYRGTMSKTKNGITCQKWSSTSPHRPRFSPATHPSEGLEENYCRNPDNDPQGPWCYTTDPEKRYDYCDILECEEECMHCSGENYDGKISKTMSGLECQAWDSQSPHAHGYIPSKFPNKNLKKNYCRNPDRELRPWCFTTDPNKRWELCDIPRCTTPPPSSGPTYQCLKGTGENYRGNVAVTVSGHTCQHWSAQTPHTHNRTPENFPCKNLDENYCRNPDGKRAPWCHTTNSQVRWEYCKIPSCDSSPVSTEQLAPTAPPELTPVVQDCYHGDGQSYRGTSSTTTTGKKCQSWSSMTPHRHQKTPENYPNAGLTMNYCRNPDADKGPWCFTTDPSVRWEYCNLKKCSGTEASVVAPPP
Method: (§1) A phage library displaying random cyclic peptides with the structure CX7C (C, cysteine; X, any residue) was prepared. An aliquot of the library containing 3×10^10 transducing units (TU) was screened with rhAngiostatin protein coated on microtiter wells as described (Koivunen et al 1993). In the first and second panning the amount of protein used was 10 μg/well. To increase the stringency of panning, the wells were coated with a decreased concentration of rhAngiostatin protein (100 ng/well) in the third panning. Phage remained bound after extensive washing. Bound phage were recovered by infection into F-pilus positive K91 bacteria. To determine the specificity of rhAngiostatin binding, selected phage were assayed as described but using rh-Endostatin and BSA proteins to coat the wells. In all assays, insertless phage (fdtet) was used as a control.
(§2) Phage were sequenced from randomly selected clones after three rounds of panning (Koivunen et al., 1994, 1995; Pasqualini et al., 1995). A number of distinct angiostatin-targeting sequences were identified (Table 10). Randomly selected clones from rounds II and III were sequenced. Amino acid sequences of the phagemid encoded peptides were deduced from nucleotide sequences. A consensus sequence appeared on the third round in 61% of the sequences examined (26 out of 42)—CWSLEXXKC (SEQ D NO: 141). Including the closely related sequence CWSAEWTKC (SEQ ID NO: 142) the consensus motif accounted for 71% of Angiostatin binding peptides. The ratios in the last two columns of Table 10 were calculated by dividing the number of colonies recovered from rhAngiostatin-coated wells by those recovered from rh-Endostatin or BSA wells.

CD13 (Aminopeptidase N) = assay: competition against rhAngiostatin binding to coated CD13, 0.5 µg peptide; not shown
Chain of CD13 (Aminopeptidase N) (P15145 2-963): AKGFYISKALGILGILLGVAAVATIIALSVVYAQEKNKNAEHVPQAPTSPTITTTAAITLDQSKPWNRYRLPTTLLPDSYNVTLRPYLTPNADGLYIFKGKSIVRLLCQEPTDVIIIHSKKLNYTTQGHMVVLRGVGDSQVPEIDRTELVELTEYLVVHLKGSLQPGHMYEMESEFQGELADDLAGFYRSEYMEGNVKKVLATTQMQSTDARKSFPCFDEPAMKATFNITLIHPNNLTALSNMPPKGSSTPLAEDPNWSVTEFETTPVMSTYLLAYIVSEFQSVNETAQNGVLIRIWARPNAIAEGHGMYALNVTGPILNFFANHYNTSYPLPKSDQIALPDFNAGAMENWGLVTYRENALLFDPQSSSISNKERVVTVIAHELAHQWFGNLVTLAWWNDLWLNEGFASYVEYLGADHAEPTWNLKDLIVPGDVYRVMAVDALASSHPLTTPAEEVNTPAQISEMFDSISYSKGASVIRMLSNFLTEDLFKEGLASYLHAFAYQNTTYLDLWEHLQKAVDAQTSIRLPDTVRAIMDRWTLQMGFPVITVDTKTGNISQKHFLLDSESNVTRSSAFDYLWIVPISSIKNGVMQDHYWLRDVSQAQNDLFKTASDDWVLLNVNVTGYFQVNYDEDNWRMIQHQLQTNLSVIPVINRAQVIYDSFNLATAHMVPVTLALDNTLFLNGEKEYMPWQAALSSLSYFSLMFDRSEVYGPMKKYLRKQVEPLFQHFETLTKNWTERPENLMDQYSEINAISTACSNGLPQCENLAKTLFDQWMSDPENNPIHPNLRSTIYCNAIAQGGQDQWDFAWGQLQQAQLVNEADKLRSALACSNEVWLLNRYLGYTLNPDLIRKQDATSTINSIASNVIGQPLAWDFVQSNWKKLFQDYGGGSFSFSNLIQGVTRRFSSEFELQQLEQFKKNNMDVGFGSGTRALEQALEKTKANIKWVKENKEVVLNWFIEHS

[2] = tested on: IgG from the ovarian cancer patient; assay: Binding of phage to IgGs isolated from ovarian cancer patient ascites or serum; set-up: species or system human
Text: FIG. 22. Binding of phage containing the CVPELGHEC (SEQ ID NO: 271) and CFELGFELGC (SEQ ID NO: 272) targeting peptides to IgG's isolated from ovarian cancer patient #2 ascites, normal serum and BSA.
FIG. 23. Binding of phage containing the CVPELGHEC (SEQ ID NO: 271) targeting peptide to IgG's isolated from normal serum or from ascites of ovarian cancer patient #1 or #2. Control fd-tet phage contained no insert DNA.
FIG. 24. Binding of phage containing the CVPELGHEC (SEQ ID NO: 271) targeting peptide to IgG's isolated from serum of ovarian cancer patient #2, normal serum or BSA.
To select peptides specific to the ascitic fluid of ovarian cancer patients, IgGs from normal donor serum and ovarian cancer cell free ascitic fluid were bound to Protein agarose (Pierce) in the Pierce acetate, pH5 binding buffer. A two step biopanning procedure was employed in which the first step involved pre-clearing the phage peptide library by incubating it with IgGs isolated from normal donor serum in order to remove common antigens. This was followed by a second step where the pre-cleared library was used to screen cancer specific IgGs. Approximately 10^8 transforming units were added to the IgGs for the panning procedure. The resultant IgG-bound phage were recovered by eluting the phage with 0.1M glycine buffer, pH2.2, neutralizing the phage with 0.1 volume 1 M Tris-Cl, pH 9, and using the phage to infect stationary phase Escherichia coli strain K91. Serial dilutions of phage infected-K91 were plated onto tetracycline (40 μg/ml) LB agar plates and grown overnight at 37° C. Individual clones were picked, amplified, and precipitated for subsequent rounds of panning. A total of three rounds of selection were performed. Phage clones from the second and third rounds were subject to PCR followed by sequence analysis to evaluate enrichment of the most consistently binding peptide sequences.

[3] = tested on: antibodies present in the serum; assay: ELISA of sera on immobilized GST-fusion peptides; format: binding, human; conditions: for reactivity of serum against peptide in presence of the corresponding synthetic peptide: data not shown; for ELISA reactivity of patient serum with GST-fusion peptide: serum of the patients selected for the screenings, GST alone as negative control
Method: A 20 μg/ml solution of purified GST or GST-fusion proteins in 0.1M NaHCO3 was used to coat maxisorp multi-well plates (Nalge Nunc International Corporation) and incubated overnight at 4° C. The plates were blocked in a blocking buffer (4% milk, 2% casein, and 0.05% Tween-20) for 3-4 hours. A series of […] (1:100-1:1200) of sera from prostate cancer patients or healthy individuals was added and incubated for 1.5 hours and then washed five times with washing buffer (1% milk, 0.5% casein, and 0.025% Tween-20), followed by incubation at 4° C. with anti-human allaline phosphatase-conjugated antibodies (Gibco). The plates were then washed six times in washing buffer and developed using p-NPP (Sigma) as a substrate. An automatic ELISA plate reader (BIO-TEK instrument) recorded the results at OD405 nm.
Probabilities of survival for each group were estimated using the Kaplan-Meier method. A log-rank test was implemented in order to detect significant differences between the groups. Reactivity was considered to be detected if the ratio between GST-peptide and GST alone was greater or equal to two by the ELISA data. The Cox proportional hazards model was applied to analyze the effect of single and multiple risk factors in association with survival. Martingale residual plots were used to assess the proportional hazard assumption. P-values less than 0.05 were considered significant. All analyses were performed using SPLUS statistical software.
ELISA was performed to assess if the peptides could be specifically recognized by the antibodies present in the serum of the patients selected for the screenings. Peptides A (CHQKPWEC, SEQ ID NO: 58), B (CKDRFERC, SEQ ID NO: 59), and C (CNVSDKSC, SEQ ID NO: 60) were produced as GST-fusion proteins and immobilized onto microtiter wells, along with GST alone as a negative control. For each sample tested, a series of 100-fold dilutions was performed. […] The reactivity of each serum against peptides A, B and C was inhibited by the corresponding synthetic peptides (data not shown).
The reactivity profile of 91 sera obtained from clinically annotated prostate cancer patients was examined. Sera from 34 healthy individuals were also tested as a control for specificity. ELISA was performed to evaluate each serum using the three selected peptides (A, B, and C). The sera obtained from patients with prostate cancer were divided into three groups: 35 originated from patients with localized adenocarcinomas, 27 from patients with metastatic androgen-dependent disease, and 29 originated from patients with metastatic androgen-independent disease.

[4] = tested on: cells infected by targeted phage vectors; assay: Enhancement of phage transduction by genotoxic agents or genetic trans-complementation; format: cell-based; conditions: genotoxic drug 10 μM added 36 hours after infection, analysis at 72 hours post-infection
Method: Semi-confluent cells were infected with 10^5 TU of phage per cell for 4 hours in serum free media, after which fresh medium supplemented with FCS was added (no phage were washed out or removed). In some experiments, a phage admixture of forward and reverse clones at 10^10 TU (forward/reverse molar ratio=1) was tested. Next, cells were incubated for 36 hours followed by the addition of genotoxic drugs (topotecan, 10 μM; cisplatin, 10 μM) or administration of UV radiation (15 J/m^2) with a cross-linker apparatus (UV Stratalinker Model 2400; Stratagene). At 72 hours post-infection, the cells were analyzed for transduction of a reporter gene (β-gal or GFP), and gene expression was normalized per cell number relative to controls.

rhAngiostatin [5] = target: T2, rhAngiostatin (human, UniProt P00747 98-357, limits assumed); assay: phage binding to coated wells; colonies from rhAngiostatin wells divided by those from BSA wells
T2 sequence (P00747 98-357 limits assumed): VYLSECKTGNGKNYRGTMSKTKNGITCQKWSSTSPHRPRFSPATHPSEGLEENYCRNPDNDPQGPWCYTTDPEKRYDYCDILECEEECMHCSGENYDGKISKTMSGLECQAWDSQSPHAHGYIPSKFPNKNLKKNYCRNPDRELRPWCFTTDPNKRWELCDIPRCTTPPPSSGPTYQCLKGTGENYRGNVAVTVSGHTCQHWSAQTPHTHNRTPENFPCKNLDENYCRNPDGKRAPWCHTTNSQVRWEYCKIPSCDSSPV
Method: as §1, with “CX₇C” for “CX7C”, “3×10¹⁰” for “3×10^10”
as §2, with “CWSAEWTKC” left out

rhAngiostatin [6] = target: T2, rhAngiostatin; assay: phage binding to coated wells; colonies from rhAngiostatin wells divided by those from rh-Endostatin wells
Method: as §1, with “CX₇C” for “CX7C”, “3×10¹⁰” for “3×10^10”
as §2, with “CWSAEWTKC” left out

## CWSLEVAKC
rhAngiostatin [1]
  frequency: 5/42

## NGR peptide (Burg et al., 1999)
CD13 (Aminopeptidase N)
  percent inhibition of angiostatin binding to CD13: > 50%

## CWSAEWTKC
rhAngiostatin [1]
  frequency: 4/42

## CYGAWRVSC
rhAngiostatin [1]
  frequency: 1/42

## CVPELGHEC
[2]; FIG. 22
  phage binding to IgG from ovarian cancer patient #2 ascites versus IgG from a normal patient or BSA: very high selectivity
[2]; FIG. 23
  phage binding to IgGs from patient #2 compared to patient #1 or normal individuals: much higher affinity
[2]; FIG. 24
  phage binding to serum from patient #2 compared to BSA or normal serum: similarly high selectivity

## CKDRFERC [peptide B]
[3]
  reactivity of serum against peptide in presence of the corresponding synthetic peptide: inhibited
  ELISA reactivity of patient serum with GST-fusion peptide: strong reactivity

## CRVLADRDC
rhAngiostatin [1]
  frequency: 1/42

## CC[C@@]1(O)C(=O)OCc2c1cc1n(c2=O)Cc2cc3c(CN(C)C)c(O)ccc3nc2-1 [topotecan]
[4]
  gene transduction by targeted phage vectors relative to controls: several fold higher

## CWSLELSKC
rhAngiostatin [1]
  frequency: 10/42

## N.N.[Cl][Pt][Cl] [cisplatin]
[4]
  gene transduction by targeted phage vectors relative to controls: several fold higher

## CHQKPWEC [peptide A]
[3]
  reactivity of serum against peptide in presence of the corresponding synthetic peptide: inhibited
  ELISA reactivity of patient serum with GST-fusion peptide: strong reactivity

## CLAWVGGRC
rhAngiostatin [1]
  frequency: 1/42

## CVAADRYVC
rhAngiostatin [1]
  frequency: 1/42

## CRWSSMIWC
rhAngiostatin [1]
  frequency: 1/42

## CWSLELLKC
rhAngiostatin [1]
  frequency: 2/42

## CQGKFSQRC
rhAngiostatin [1]
  frequency: 1/42

## CSLQGIVGC
rhAngiostatin [1]
  frequency: 1/42

## CWSLESLKC
rhAngiostatin [1]
  frequency: 4/42

## CSRSVSRLC
rhAngiostatin [1]
  frequency: 1/42

## CGVVSRVGC
rhAngiostatin [1]
  frequency: 1/42

## CGGREFWLC
rhAngiostatin [1]
  frequency: 1/42

## CWSLEFTKC
rhAngiostatin [1]
  frequency: 5/42

## CNVSDKSC [peptide C]
[3]
  reactivity of serum against peptide in presence of the corresponding synthetic peptide: inhibited
  ELISA reactivity of patient serum with GST-fusion peptide: strong reactivity

B1: phage displaying CWSLEVAKC (peptide)
peptide: CWSLEVAKC
modifications: not fully specified (bridges); cysteine pairing not given here; also: displayed on phage
rhAngiostatin [5]
  rh-Angio/BSA (ratio of colonies recovered): 1120 ratio
rhAngiostatin [6]
  rh-Angio/rhEndo (ratio of colonies recovered): 486 ratio

B2: phage displaying CYGAWRVSC (peptide)
peptide: CYGAWRVSC
modifications: not fully specified (bridges); cysteine pairing not given here; also: displayed on phage
rhAngiostatin [5]
  rh-Angio/BSA (ratio of colonies recovered): 14 ratio
rhAngiostatin [6]
  rh-Angio/rhEndo (ratio of colonies recovered): 6 ratio

B3: phage displaying CWSLELLKC (peptide)
peptide: CWSLELLKC
modifications: not fully specified (bridges); cysteine pairing not given here; also: displayed on phage
rhAngiostatin [5]
  rh-Angio/BSA (ratio of colonies recovered): 734 ratio
rhAngiostatin [6]
  rh-Angio/rhEndo (ratio of colonies recovered): 489 ratio

B4: phage displaying CWSLELSKC (peptide)
peptide: CWSLELSKC
modifications: not fully specified (bridges); cysteine pairing not given here; also: displayed on phage
rhAngiostatin [5]
  rh-Angio/BSA (ratio of colonies recovered): 630 ratio
rhAngiostatin [6]
  rh-Angio/rhEndo (ratio of colonies recovered): 630 ratio

B5: phage displaying CWSLEFTKC (peptide)
peptide: CWSLEFTKC
modifications: not fully specified (bridges); cysteine pairing not given here; also: displayed on phage
rhAngiostatin [5]
  rh-Angio/BSA (ratio of colonies recovered): 958 ratio
rhAngiostatin [6]
  rh-Angio/rhEndo (ratio of colonies recovered): 958 ratio

B6: phage displaying CRWSSMIWC (peptide)
peptide: CRWSSMIWC
modifications: not fully specified (bridges); cysteine pairing not given here; also: displayed on phage
rhAngiostatin [5]
  rh-Angio/BSA (ratio of colonies recovered): 11 ratio
rhAngiostatin [6]
  rh-Angio/rhEndo (ratio of colonies recovered): 7 ratio

B7: phage displaying CWSAEWTKC (peptide)
peptide: CWSAEWTKC
modifications: not fully specified (bridges); cysteine pairing not given here; also: displayed on phage
rhAngiostatin [5]
  rh-Angio/BSA (ratio of colonies recovered): 892 ratio
rhAngiostatin [6]
  rh-Angio/rhEndo (ratio of colonies recovered): 124 ratio
